Measured values as given in patent US20110118447A1.
Residue numbers refer to the chain shown, from its start. Names and notes keep the numbering of the source. Blank lines part the entries; values can stand above or below the binder they belong to.

Key:
[1] = molecular target: binding partner of C5A (XPA23); experiment: Biacore
[2] = molecular target: binding partner of C5A (XPA23); experiment: Biacore, K-off
[3] = molecular target: binding partner (antigen) of C5A (XPA23); experiment: Biacore, K-off, fold vs original

B2: C5A (XPA23) VH D106Q (antibody, V domains shown)
VH: EVQLLESGGGLVQPGGSLRLSCAASGFTFSKYFMFWVRQAPGKGLEWVSVISPSGGMTRYADSVKGRFTISRDNSKNTLYLQMNSLRAEDTAVYYCARVGYGGNSQYWGQGTLVTVSS
VL: DIQMTQSPSSVSASVGDRLTIICRASQDINRWLAWYQQTPGNAPKLLIHSATSLQSGVPSRFSGSGSGTDFTLTINSLQPEDFATYYCQQADSFPLTFGGGTKVEIK
fold affinity vs original [1]: 0.02 fold
fold difference in affinity vs original [2]: 0.02 fold

B3: C5A (XPA23) VH D106H (antibody, V domains shown)
VH: B2 VH with Q106H
VL: B2 VL
fold affinity vs original [1]: 0.02 fold
fold difference in affinity vs original [2]: 0.02 fold

B6: C5A (XPA23) VH N104H (antibody, V domains shown)
VH: B2 VH with N104H, Q106D
VL: B2 VL
fold affinity vs original [1]: 0.07 fold
fold difference in affinity vs original [2]: 0.07 fold

B9: C5A (XPA23) VH D106K (antibody, V domains shown)
VH: B2 VH with Q106K
VL: B2 VL
fold affinity vs original [1]: 0.04 fold
fold difference in affinity vs original [2]: 0.04 fold

B14: C5A (XPA23) VH F35P (antibody, V domains shown)
VH: B2 VH with F35P, Q106D
VL: B2 VL
fold difference in affinity vs original [1]: 0.06 fold
fold difference in affinity vs original [3]: 0.06 fold

B15: C5A (XPA23) VH D106R (antibody, V domains shown)
VH: B2 VH with Q106R
VL: B2 VL
fold affinity vs original [1]: 0.06 fold
fold difference in affinity vs original [2]: 0.06 fold

B17: C5A (XPA23) VH F35A (antibody, V domains shown)
VH: B2 VH with F35A, Q106D
VL: B2 VL
fold difference in affinity vs original [1]: 0.07 fold
fold difference in affinity vs original [3]: 0.07 fold

B18: C5A (XPA23) VH D106E (antibody, V domains shown)
VH: B2 VH with Q106E
VL: B2 VL
fold affinity vs original [1]: 0.04 fold
fold difference in affinity vs original [2]: 0.04 fold

B20: C5A (XPA23) VH F35I (antibody, V domains shown)
VH: B2 VH with F35I, Q106D
VL: B2 VL
fold difference in affinity vs original [1]: 0.85 fold
fold difference in affinity vs original [3]: 0.85 fold

B21: C5A (XPA23) VH G102N (antibody, V domains shown)
VH: B2 VH with G102N, Q106D
VL: B2 VL
fold affinity vs original [1]: 1.17 fold
fold difference in affinity vs original [2]: 1.17 fold

B31: C5A (XPA23) VH D106N (antibody, V domains shown)
VH: B2 VH with Q106N
VL: B2 VL
fold affinity vs original [1]: 0.07 fold
fold difference in affinity vs original [2]: 0.07 fold

B33: C5A (XPA23) VH F35V (antibody, V domains shown)
VH: B2 VH with F35V, Q106D
VL: B2 VL
fold difference in affinity vs original [1]: 0.89 fold
fold difference in affinity vs original [3]: 0.89 fold

B34: C5A (XPA23) VH F35G (antibody, V domains shown)
VH: B2 VH with F35G, Q106D
VL: B2 VL
fold difference in affinity vs original [1]: 0.04 fold
fold difference in affinity vs original [3]: 0.04 fold

B36: C5A (XPA23) VH F35L (antibody, V domains shown)
VH: B2 VH with F35L, Q106D
VL: B2 VL
fold difference in affinity vs original [1]: 0.78 fold
fold difference in affinity vs original [3]: 0.78 fold

B37: C5A (XPA23) VH I51G (antibody, V domains shown)
VH: B2 VH with I51G, Q106D
VL: B2 VL
fold difference in affinity vs original [1]: 0.94 fold
fold difference in affinity vs original [3]: 0.94 fold

B39: C5A (XPA23) VH D106S (antibody, V domains shown)
VH: B2 VH with Q106S
VL: B2 VL
fold affinity vs original [1]: 0.03 fold
fold difference in affinity vs original [2]: 0.03 fold

Further lines, results first:

fold affinity vs original [1]: 0.85 fold
fold difference in affinity vs original [2]: 0.85 fold
B1: C5A (XPA23) VH Y101R (antibody, V domains shown)
VH: B2 VH with Y101R, Q106D
VL: B2 VL

fold affinity vs original [1]: 0.85 fold
fold difference in affinity vs original [2]: 0.85 fold
B4: C5A (XPA23) VH Y107D (antibody, V domains shown)
VH: B2 VH with Q106D, Y107D
VL: B2 VL

fold affinity vs original [1]: 0.87 fold
fold difference in affinity vs original [2]: 0.87 fold
B5: C5A (XPA23) VH Y107Q (antibody, V domains shown)
VH: B2 VH with Q106D, Y107Q
VL: B2 VL

fold difference in affinity vs original [1]: 0.1 fold
fold difference in affinity vs original [3]: 0.1 fold
B7: C5A (XPA23) VH V50I (antibody, V domains shown)
VH: B2 VH with V50I, Q106D
VL: B2 VL

fold difference in affinity vs original [1]: 0.09 fold
fold difference in affinity vs original [3]: 0.09 fold
B8: C5A (XPA23) VH V50A (antibody, V domains shown)
VH: B2 VH with V50A, Q106D
VL: B2 VL

fold affinity vs original [1]: 1.17 fold
fold difference in affinity vs original [2]: 1.17 fold
B10: C5A (XPA23) VH S105E (antibody, V domains shown)
VH: B2 VH with S105E, Q106D
VL: B2 VL

fold affinity vs original [1]: 0.06 fold
fold difference in affinity vs original [2]: 0.06 fold
B11: C5A (XPA23) VH Y101N (antibody, V domains shown)
VH: B2 VH with Y101N, Q106D
VL: B2 VL

fold difference in affinity vs original [1]: 0.06 fold
fold difference in affinity vs original [2]: 0.06 fold
B12: C5A (XPA23) VH Y101T (antibody, V domains shown)
VH: B2 VH with Y101T, Q106D
VL: B2 VL

fold affinity vs original [1]: 0.03 fold
fold difference in affinity vs original [2]: 0.03 fold
B13: C5A (XPA23) VH N104Q (antibody, V domains shown)
VH: B2 VH with N104Q, Q106D
VL: B2 VL

fold affinity vs original [1]: 0.85 fold
fold difference in affinity vs original [2]: 0.85 fold
B16: C5A (XPA23) VH Y107R (antibody, V domains shown)
VH: B2 VH with Q106D, Y107R
VL: B2 VL

fold difference in affinity vs original [1]: 0.95 fold
fold difference in affinity vs original [2]: 0.95 fold
B19: C5A (XPA23) VH N104T (antibody, V domains shown)
VH: B2 VH with N104T, Q106D
VL: B2 VL

fold affinity vs original [1]: 0.06 fold
fold difference in affinity vs original [2]: 0.06 fold
B22: C5A (XPA23) VH Y101Q (antibody, V domains shown)
VH: B2 VH with Y101Q, Q106D
VL: B2 VL

fold affinity vs original [1]: 0.9 fold
fold difference in affinity vs original [2]: 0.9 fold
B23: C5A (XPA23) VH Y107E (antibody, V domains shown)
VH: B2 VH with Q106D, Y107E
VL: B2 VL

fold affinity vs original [1]: 0.98 fold
fold difference in affinity vs original [2]: 0.98 fold
B24: C5A (XPA23) VH S105Q (antibody, V domains shown)
VH: B2 VH with S105Q, Q106D
VL: B2 VL

fold difference in affinity vs original [1]: 0.03 fold
fold difference in affinity vs original [3]: 0.03 fold
B25: C5A (XPA23) VH V50G (antibody, V domains shown)
VH: B2 VH with V50G, Q106D
VL: B2 VL

fold affinity vs original [1]: 0.89 fold
fold difference in affinity vs original [2]: 0.89 fold
B26: C5A (XPA23) VH Y107S (antibody, V domains shown)
VH: B2 VH with Q106D, Y107S
VL: B2 VL

fold affinity vs original [1]: 0.82 fold
fold difference in affinity vs original [2]: 0.82 fold
B27: C5A (XPA23) VH Y107K (antibody, V domains shown)
VH: B2 VH with Q106D, Y107K
VL: B2 VL

fold affinity vs original [1]: 0.85 fold
fold difference in affinity vs original [2]: 0.85 fold
B28: C5A (XPA23) VH S105N (antibody, V domains shown)
VH: B2 VH with S105N, Q106D
VL: B2 VL

fold difference in affinity vs original [1]: 0.09 fold
fold difference in affinity vs original [3]: 0.09 fold
B29: C5A (XPA23) VH V50L (antibody, V domains shown)
VH: B2 VH with V50L, Q106D
VL: B2 VL

fold affinity vs original [1]: 0.05 fold
fold difference in affinity vs original [2]: 0.05 fold
B30: C5A (XPA23) VH S105H (antibody, V domains shown)
VH: B2 VH with S105H, Q106D
VL: B2 VL

fold difference in affinity vs original [1]: 0.83 fold
fold difference in affinity vs original [2]: 0.83 fold
B32: C5A (XPA23) VH Y107T (antibody, V domains shown)
VH: B2 VH with Q106D, Y107T
VL: B2 VL

fold affinity vs original [1]: 1.02 fold
fold difference in affinity vs original [2]: 1.02 fold
B35: C5A (XPA23) VH N104S (antibody, V domains shown)
VH: B2 VH with N104S, Q106D
VL: B2 VL

fold difference in affinity vs original [1]: 0.11 fold
fold difference in affinity vs original [2]: 0.11 fold
B38: C5A (XPA23) VH S105T (antibody, V domains shown)
VH: B2 VH with S105T, Q106D
VL: B2 VL
